Experimental data published in paper PMC10149743, “Structural studies of the nucleus-like assembly of jumbo bacteriophage 201φ2-1” (Frontiers in Microbiology, 2023).

Experiments:
[1] = target: the molecule itself; test: SEC; truncation mutants of gp105, purified as the wild type, Superose 6 Increase 10/300 GL in buffer B (20 mM HEPES pH 7.5, 150 mM NaCl); self-association
[2] = target: the molecule itself; test: cryo-EM structure; cube-like particles from the 11.4 ml SEC peak; reconstruction with O symmetry (4.76 Å) and without symmetry (6.41 Å)

B1: gp105Δ(NTS 1–17) (domain or fragment, Pseudomonas phage 201phi2-1, UniProt B3FIW8 18-631, looked up)
chain: QAPAQQFTQAPQEKPMQSTQSQPTPSYAGTGGINSQFTRSGNVQGGDARASEALTVFTRLKEQAVAQQDLADDFSILRFDRDQHQVGWSSLVIAKQISLNGQPVIAVRPLILPNNSIELPKRKTNIVNGMQTDVIESDIDVGTVFSAQYFNRLSTYVQNTLGKPGAKVVLAGPFPIPADLVLKDSELQLRNLLIKSVNACDDILALHSGERPFTIAGLKGQQGETLAAKVDIRTQPLHDTVGNPIRADIVVTTQRVRRNGQQENEFYETDVKLNQVAMFTNLERTPQAQAQTLFPNQQQVATPAPWVASVVITDVRNADGIQANTPEMYWFALSNAFRSTHGHAWARPFLPMTGVAKDMKDIGALGWMSALRNRIDTKAANFDDAQFGQLMLSQVQPNPVFQIDLNRMGETAQMDSLQLDAAGGPNAQKAAATIIRQINNLGGGGFERFFDHTTQPILERTGQVIDLGNWFDGDEKRDRRDLDNLAALNAAEGNENEFWGFYGAQLNPNLHPDLRNRQSRNYDRQYLGSTVTYTGKAERCTYNAKFIEALDRYLAEAGLQITMDNTSVLNSGQRFMGNSVIGNNMVSGQAQVHSAYAGTQGFNTQYQTGPSSFY
notes: gp105 of Pseudomonas phage 201phi2-1, GenBank ABY62937, residues 1-17 removed; Truncation made by PCR and In-Fusion cloning into pET28a; source: E. coli BL21 (DE3) pLysS, purified using the same method as for the wild type gp105
B1: binds [1].

B2: gp105Δ(NTS 1–17, CTS 609–631) (domain or fragment, Pseudomonas phage 201phi2-1, UniProt B3FIW8 18-608, looked up)
chain: QAPAQQFTQAPQEKPMQSTQSQPTPSYAGTGGINSQFTRSGNVQGGDARASEALTVFTRLKEQAVAQQDLADDFSILRFDRDQHQVGWSSLVIAKQISLNGQPVIAVRPLILPNNSIELPKRKTNIVNGMQTDVIESDIDVGTVFSAQYFNRLSTYVQNTLGKPGAKVVLAGPFPIPADLVLKDSELQLRNLLIKSVNACDDILALHSGERPFTIAGLKGQQGETLAAKVDIRTQPLHDTVGNPIRADIVVTTQRVRRNGQQENEFYETDVKLNQVAMFTNLERTPQAQAQTLFPNQQQVATPAPWVASVVITDVRNADGIQANTPEMYWFALSNAFRSTHGHAWARPFLPMTGVAKDMKDIGALGWMSALRNRIDTKAANFDDAQFGQLMLSQVQPNPVFQIDLNRMGETAQMDSLQLDAAGGPNAQKAAATIIRQINNLGGGGFERFFDHTTQPILERTGQVIDLGNWFDGDEKRDRRDLDNLAALNAAEGNENEFWGFYGAQLNPNLHPDLRNRQSRNYDRQYLGSTVTYTGKAERCTYNAKFIEALDRYLAEAGLQITMDNTSVLNSGQRFMGNSVIGNNMVSGQAQ
notes: gp105 of Pseudomonas phage 201phi2-1, GenBank ABY62937, residues 1-17 and 609-631 removed; Truncation made by PCR and In-Fusion cloning into pET28a; source: E. coli BL21 (DE3) pLysS, purified using the same method as for the wild type gp105
B2: binds [1].

B3: gp105Δ(loop 279–285) (natural protein, Pseudomonas phage 201phi2-1, UniProt B3FIW8 1-631, looked up)
chain: MIRDTATNTTQTQAAPQQAPAQQFTQAPQEKPMQSTQSQPTPSYAGTGGINSQFTRSGNVQGGDARASEALTVFTRLKEQAVAQQDLADDFSILRFDRDQHQVGWSSLVIAKQISLNGQPVIAVRPLILPNNSIELPKRKTNIVNGMQTDVIESDIDVGTVFSAQYFNRLSTYVQNTLGKPGAKVVLAGPFPIPADLVLKDSELQLRNLLIKSVNACDDILALHSGERPFTIAGLKGQQGETLAAKVDIRTQPLHDTVGNPIRADIVVTTQRVRRNGQTDVKLNQVAMFTNLERTPQAQAQTLFPNQQQVATPAPWVASVVITDVRNADGIQANTPEMYWFALSNAFRSTHGHAWARPFLPMTGVAKDMKDIGALGWMSALRNRIDTKAANFDDAQFGQLMLSQVQPNPVFQIDLNRMGETAQMDSLQLDAAGGPNAQKAAATIIRQINNLGGGGFERFFDHTTQPILERTGQVIDLGNWFDGDEKRDRRDLDNLAALNAAEGNENEFWGFYGAQLNPNLHPDLRNRQSRNYDRQYLGSTVTYTGKAERCTYNAKFIEALDRYLAEAGLQITMDNTSVLNSGQRFMGNSVIGNNMVSGQAQVHSAYAGTQGFNTQYQTGPSSFY
notes: gp105 of Pseudomonas phage 201phi2-1, GenBank ABY62937, loop residues 279-285 deleted; source: E. coli BL21 (DE3) pLysS, purified using the same method as for the wild type gp105
B3: binds [1].

B4: nucleus-like shell protein gp105 of bacteriophage 201φ2-1, wild type, C-terminal His6 (natural protein, Pseudomonas phage 201phi2-1, UniProt B3FIW8 1-631, looked up)
chain: MIRDTATNTTQTQAAPQQAPAQQFTQAPQEKPMQSTQSQPTPSYAGTGGINSQFTRSGNVQGGDARASEALTVFTRLKEQAVAQQDLADDFSILRFDRDQHQVGWSSLVIAKQISLNGQPVIAVRPLILPNNSIELPKRKTNIVNGMQTDVIESDIDVGTVFSAQYFNRLSTYVQNTLGKPGAKVVLAGPFPIPADLVLKDSELQLRNLLIKSVNACDDILALHSGERPFTIAGLKGQQGETLAAKVDIRTQPLHDTVGNPIRADIVVTTQRVRRNGQQENEFYETDVKLNQVAMFTNLERTPQAQAQTLFPNQQQVATPAPWVASVVITDVRNADGIQANTPEMYWFALSNAFRSTHGHAWARPFLPMTGVAKDMKDIGALGWMSALRNRIDTKAANFDDAQFGQLMLSQVQPNPVFQIDLNRMGETAQMDSLQLDAAGGPNAQKAAATIIRQINNLGGGGFERFFDHTTQPILERTGQVIDLGNWFDGDEKRDRRDLDNLAALNAAEGNENEFWGFYGAQLNPNLHPDLRNRQSRNYDRQYLGSTVTYTGKAERCTYNAKFIEALDRYLAEAGLQITMDNTSVLNSGQRFMGNSVIGNNMVSGQAQVHSAYAGTQGFNTQYQTGPSSFY
notes: gp105 (nucleus-like shell protein, chimallin) of Pseudomonas phage 201phi2-1, GenBank ABY62937; 631 amino acids; synthesised codon-optimised gene in pET28a; residues 1-48 and 583-631 are named as present but not built in the model; Occurs as monomer, 24-mer cube-like particle and large sheet-like assemblies; also called NLSP; source: E. coli BL21 (DE3) pLysS, purified (cobalt resin, Superose 6 …)
With B4 the “stoichiometry N” value [2] was 24.

B5: gp105Δ(NTS 1–60) (domain or fragment, Pseudomonas phage 201phi2-1, UniProt B3FIW8 61-631, looked up)
chain: QGGDARASEALTVFTRLKEQAVAQQDLADDFSILRFDRDQHQVGWSSLVIAKQISLNGQPVIAVRPLILPNNSIELPKRKTNIVNGMQTDVIESDIDVGTVFSAQYFNRLSTYVQNTLGKPGAKVVLAGPFPIPADLVLKDSELQLRNLLIKSVNACDDILALHSGERPFTIAGLKGQQGETLAAKVDIRTQPLHDTVGNPIRADIVVTTQRVRRNGQQENEFYETDVKLNQVAMFTNLERTPQAQAQTLFPNQQQVATPAPWVASVVITDVRNADGIQANTPEMYWFALSNAFRSTHGHAWARPFLPMTGVAKDMKDIGALGWMSALRNRIDTKAANFDDAQFGQLMLSQVQPNPVFQIDLNRMGETAQMDSLQLDAAGGPNAQKAAATIIRQINNLGGGGFERFFDHTTQPILERTGQVIDLGNWFDGDEKRDRRDLDNLAALNAAEGNENEFWGFYGAQLNPNLHPDLRNRQSRNYDRQYLGSTVTYTGKAERCTYNAKFIEALDRYLAEAGLQITMDNTSVLNSGQRFMGNSVIGNNMVSGQAQVHSAYAGTQGFNTQYQTGPSSFY
notes: gp105 of Pseudomonas phage 201phi2-1, GenBank ABY62937, residues 1-60 removed; Truncation made by PCR and In-Fusion cloning into pET28a; source: E. coli BL21 (DE3) pLysS, purified using the same method as for the wild type gp105
B5: binds [1].
